From the supplement of paper PMC9112550, “Optimization of the antimicrobial peptide Bac7 by deep mutational scanning” (BMC Biology, 2022)

Test system: Escherichia coli TOP10
Assay: shrunken log2 fold change of peptide-encoding DNA abundance (4.5 h post-induction vs induction); higher = less antimicrobial activity (less host growth inhibition)
Conditions: time post-induction: 4.5 h; library: site-saturation at positions 5, 18, 19, 20
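Also: peptides expressed intracellularly from a pBAD plasmid library in pooled LB shake-flask culture, induced with 0.3% L-arabinose, DNA abundance read by NGS, three biological replicates, DESeq2 with apeglm shrinkage.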

First: RRIRRRPPRLPRPRPRPPPYPRP
Second: RRIRYRPPRLPRPRPRPKLFPRP
The “shrunken log2 fold change” value of the first is higher: 0.366 for the first, -0.0593 for the second.

RRIRCRPPRLPRPRPRPYDVPRP and RRIRERPPRLPRPRPRPEQCPRP are within 0.2 log units of each other in “shrunken log2 fold change” value: -0.0223 for the first, -0.0274 for the second.

RRIRTRPPRLPRPRPRPMCEPRP and RRIRIRPPRLPRPRPRPPFLPRP are within 0.2 log units of each other in “shrunken log2 fold change” value: 0.0422 for the first, -0.0978 for the second.

RRIRERPPRLPRPRPRPMEHPRP and RRIRRRPPRLPRPRPRPAGNPRP are within 0.2 log units of each other in “shrunken log2 fold change” value: 0.0106 for the first, -0.0218 for the second.

RRIRQRPPRLPRPRPRPNNQPRP and RRIRQRPPRLPRPRPRPTIHPRP are within 0.2 log units of each other in “shrunken log2 fold change” value: -0.477 for the first, -0.32 for the second.

RRIRKRPPRLPRPRPRPIKMPRP and RRIRTRPPRLPRPRPRPGTEPRP are within 0.2 log units of each other in “shrunken log2 fold change” value: 0.0326 for the first, 0.0787 for the second.

RRIRKRPPRLPRPRPRPKYKPRP and RRIRIRPPRLPRPRPRPKMIPRP are within 0.2 log units of each other in “shrunken log2 fold change” value: -0.19 for the first, -0.379 for the second.

RRIRNRPPRLPRPRPRPQVPPRP and RRIRERPPRLPRPRPRPDQTPRP are within 0.2 log units of each other in “shrunken log2 fold change” value: 0.0184 for the first, -0.00664 for the second.

Going from RRIRMRPPRLPRPRPRPALWPRP to RRIRHRPPRLPRPRPRPGSDPRP, the “shrunken log2 fold change” value falls from 0.858 to -0.014.

First: RRIRARPPRLPRPRPRPDFSPRP
Second: RRIRLRPPRLPRPRPRPFDMPRP
The “shrunken log2 fold change” value of the first is higher: 0.000254 for the first, -0.205 for the second.

Compared with RRIRSRPPRLPRPRPRPLWDPRP, RRIRWRPPRLPRPRPRPQMFPRP is higher in “shrunken log2 fold change” value: -0.134 for the first, 0.197 for the second.

Going from RRIRPRPPRLPRPRPRPVENPRP to RRIRNRPPRLPRPRPRPDKGPRP, the “shrunken log2 fold change” value falls from 0.243 to 0.00408.

RRIRKRPPRLPRPRPRPGTLPRP and RRIRVRPPRLPRPRPRPMYRPRP are within 0.2 log units of each other in “shrunken log2 fold change” value: 0.0624 for the first, 0.0262 for the second.

RRIRIRPPRLPRPRPRPKEEPRP and RRIRQRPPRLPRPRPRPRGNPRP are within 0.2 log units of each other in “shrunken log2 fold change” value: 0.0133 for the first, 0.106 for the second.

Compared with RRIRNRPPRLPRPRPRPTILPRP, RRIRPRPPRLPRPRPRPDTAPRP is higher in “shrunken log2 fold change” value: -0.742 for the first, -0.0311 for the second.

Compared with RRIRDRPPRLPRPRPRPDEAPRP, RRIRSRPPRLPRPRPRPYEPPRP is lower in “shrunken log2 fold change” value: 0.12 for the first, -0.619 for the second.

Going from RRIRDRPPRLPRPRPRPRDSPRP to RRIRPRPPRLPRPRPRPFYHPRP, the “shrunken log2 fold change” value falls from -0.153 to -0.547.

RRIRRRPPRLPRPRPRPMTTPRP and RRIRKRPPRLPRPRPRPIRCPRP are within 0.2 log units of each other in “shrunken log2 fold change” value: 0.0808 for the first, 0.0497 for the second.

First: RRIRMRPPRLPRPRPRPMAMPRP
Second: RRIRRRPPRLPRPRPRPRWQPRP
The “shrunken log2 fold change” value of the first is lower: 0.0319 for the first, 0.636 for the second.

First: RRIRIRPPRLPRPRPRPGSHPRP
Second: RRIRTRPPRLPRPRPRPLCDPRP
The “shrunken log2 fold change” value of the first is higher: 0.141 for the first, -0.714 for the second.

First: RRIRIRPPRLPRPRPRPDVEPRP
Second: RRIRVRPPRLPRPRPRPQCMPRP
The “shrunken log2 fold change” value of the first is higher: -0.054 for the first, -0.528 for the second.

RRIRDRPPRLPRPRPRPCADPRP and RRIRQRPPRLPRPRPRPHRSPRP are within 0.2 log units of each other in “shrunken log2 fold change” value: 0.167 for the first, -0.00875 for the second.

RRIRFRPPRLPRPRPRPDRVPRP and RRIRKRPPRLPRPRPRPLLHPRP are within 0.2 log units of each other in “shrunken log2 fold change” value: 0.0813 for the first, 0.108 for the second.

First: RRIRHRPPRLPRPRPRPRVGPRP
Second: RRIRYRPPRLPRPRPRPVLKPRP
The “shrunken log2 fold change” value of the first is higher: 0.371 for the first, -0.122 for the second.

Going from RRIRGRPPRLPRPRPRPVKNPRP to RRIRWRPPRLPRPRPRPNAFPRP, the “shrunken log2 fold change” value falls from 0.554 to 0.0579.

First: RRIRCRPPRLPRPRPRPCDVPRP
Second: RRIRIRPPRLPRPRPRPIILPRP
The “shrunken log2 fold change” value of the first is higher: -0.0285 for the first, -0.646 for the second.

Compared with RRIRMRPPRLPRPRPRPLREPRP, RRIRMRPPRLPRPRPRPMDWPRP is lower in “shrunken log2 fold change” value: 3.88 for the first, 0.15 for the second.

RRIRTRPPRLPRPRPRPTWIPRP and RRIRWRPPRLPRPRPRPCYNPRP are within 0.2 log units of each other in “shrunken log2 fold change” value: -0.0425 for the first, -0.24 for the second.

RRIRVRPPRLPRPRPRPRHKPRP and RRIRYRPPRLPRPRPRPPQWPRP are within 0.2 log units of each other in “shrunken log2 fold change” value: 0.13 for the first, 0.204 for the second.

RRIRDRPPRLPRPRPRPPNHPRP and RRIRHRPPRLPRPRPRPMFTPRP are within 0.2 log units of each other in “shrunken log2 fold change” value: -0.205 for the first, -0.102 for the second.

RRIRNRPPRLPRPRPRPWNKPRP and RRIRKRPPRLPRPRPRPDYQPRP are within 0.2 log units of each other in “shrunken log2 fold change” value: -0.184 for the first, -0.0353 for the second.

RRIRLRPPRLPRPRPRPWMIPRP and RRIRWRPPRLPRPRPRPFEKPRP are within 0.2 log units of each other in “shrunken log2 fold change” value: -0.0928 for the first, 0.0683 for the second.

Going from RRIRIRPPRLPRPRPRPRIHPRP to RRIRWRPPRLPRPRPRPFLGPRP, the “shrunken log2 fold change” value falls from -0.287 to -0.552.

Going from RRIRYRPPRLPRPRPRPLMPPRP to RRIRGRPPRLPRPRPRPSSKPRP, the “shrunken log2 fold change” value rises from -0.931 to 0.0383.

First: RRIRWRPPRLPRPRPRPDFPPRP
Second: RRIRSRPPRLPRPRPRPLAEPRP
The “shrunken log2 fold change” value of the first is lower: -0.0386 for the first, 0.502 for the second.

RRIRERPPRLPRPRPRPIKCPRP and RRIRRRPPRLPRPRPRPHNGPRP are within 0.2 log units of each other in “shrunken log2 fold change” value: -0.0487 for the first, -0.172 for the second.

Going from RRIRLRPPRLPRPRPRPYEKPRP to RRIRNRPPRLPRPRPRPPVEPRP, the “shrunken log2 fold change” value rises from -0.159 to 0.272.

RRIRPRPPRLPRPRPRPCGPPRP was tested, and the “shrunken log2 fold change” value was 0.189.
